Data from US20060083742A1.

What was measured:
CFP-Bcl-XL (human) = CFP-Bcl-XL (human) (UniProt Q07817); assay: FRET on mitochondria of bryostatin-1 treated Cos-1 cell, with the fluorophores as the legend of FIG. 5A names them
YFP-Bcl-XL (human) = YFP-Bcl-XL (human) (UniProt Q07817); assay: acceptor-photobleaching FRET on single mitochondria of living cells after PKC agonist

FRET efficiency (CFP-Bcl-XL (human)) [%] | FRET efficiency (YFP-Bcl-XL (human)) [%] | Substance
17 | – | YFP-K-Ras12V (from UniProt P01116 1-186)
– | 17 | CFP-K-Ras12V (from UniProt P01116 1-186)
